# Laboratory results published in paper PMC11290353.
# Molecular target: RNA Pol II large subunit (CTD) (UniProt P08775)
# Assay: HA IP; blot Pol II S5P, S2P
# Conditions: reference: HA-CMTR1 wild type; sites S26,S28,T30,S31,S46,S49,S51,S53,S55,T57,S63,S64,S66,S75,S89
substance,measurement,value
CMTR1 (from UniProt Q8N1G2) HA-CMTR1 15A,binding against the reference,weaker
